Experimental data taken from article PMC7033180, “An endocannabinoid catabolic enzyme FAAH and its paralogs in an early land plant reveal evolutionary and functional relationship with eukaryotic orthologs” (Scientific Reports, 2020).

Legend:
PpFAAH1 = target: T1, PpFAAH1 (Physcomitrium patens, UniProt A0A7I4CIU2); test: radiolabeled amidohydrolase assay, TLC with radiometric scanner, […] min preincubation with inhibitor; type: biochemical; conditions: read-out: % inhibition at 10 nM
T1 construct: full length cDNA in pDEST15 (GST tag), E. coli BL21(DE3), GST column, tag removal not mentioned; cloning primers translate to N-terminus MAQNKMR and C-terminus FYNILK; catalytic triad K202, S278, S302
T1 sequence (A0A7I4CIU2 1-601): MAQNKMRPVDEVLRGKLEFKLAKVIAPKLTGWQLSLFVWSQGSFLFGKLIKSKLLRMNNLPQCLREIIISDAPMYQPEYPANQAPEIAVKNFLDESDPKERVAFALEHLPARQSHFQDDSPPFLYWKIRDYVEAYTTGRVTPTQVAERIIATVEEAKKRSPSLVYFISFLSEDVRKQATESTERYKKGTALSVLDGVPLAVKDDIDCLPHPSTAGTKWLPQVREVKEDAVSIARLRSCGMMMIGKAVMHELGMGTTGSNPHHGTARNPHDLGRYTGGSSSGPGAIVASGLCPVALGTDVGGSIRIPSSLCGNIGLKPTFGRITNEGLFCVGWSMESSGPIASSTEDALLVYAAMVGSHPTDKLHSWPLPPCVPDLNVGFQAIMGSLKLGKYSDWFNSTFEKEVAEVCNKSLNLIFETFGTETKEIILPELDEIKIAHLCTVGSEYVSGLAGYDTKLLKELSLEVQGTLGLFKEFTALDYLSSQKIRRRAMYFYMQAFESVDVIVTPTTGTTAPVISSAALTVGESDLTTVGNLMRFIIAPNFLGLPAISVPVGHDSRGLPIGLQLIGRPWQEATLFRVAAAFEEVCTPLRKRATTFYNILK

[1] = substrate: CCCCC/C=C\C/C=C\C/C=C\C/C=C\CCCC(=O)NCCO; test: radiolabeled amidohydrolase assay, TLC with radiometric scanner; type: biochemical, Physcomitrium patens; conditions: pH 8.0, 37 °C, labelled compound ([1-14C])
Method: radiolabeled amidohydrolase assay, TLC with radiometric scanner on PpFAAH1 | The kinetic parameters, Km and Vmax for PpFAAH1 with anandamide as a substrate were determined

## NC(=O)c1cccc(-c2cccc(OC(=O)NC3CCCCC3)c2)c1 [URB597, [3-(3-carbamoylphenyl)phenyl] N-cyclohexyl carbamate]
PpFAAH1
  inhibition at 0.01 µM: 20%

B1: PpFAAH1 (Physcomitrium patens) (protein)
chain: MAQNKMRPVDEVLRGKLEFKLAKVIAPKLTGWQLSLFVWSQGSFLFGKLIKSKLLRMNNLPQCLREIIISDAPMYQPEYPANQAPEIAVKNFLDESDPKERVAFALEHLPARQSHFQDDSPPFLYWKIRDYVEAYTTGRVTPTQVAERIIATVEEAKKRSPSLVYFISFLSEDVRKQATESTERYKKGTALSVLDGVPLAVKDDIDCLPHPSTAGTKWLPQVREVKEDAVSIARLRSCGMMMIGKAVMHELGMGTTGSNPHHGTARNPHDLGRYTGGSSSGPGAIVASGLCPVALGTDVGGSIRIPSSLCGNIGLKPTFGRITNEGLFCVGWSMESSGPIASSTEDALLVYAAMVGSHPTDKLHSWPLPPCVPDLNVGFQAIMGSLKLGKYSDWFNSTFEKEVAEVCNKSLNLIFETFGTETKEIILPELDEIKIAHLCTVGSEYVSGLAGYDTKLLKELSLEVQGTLGLFKEFTALDYLSSQKIRRRAMYFYMQAFESVDVIVTPTTGTTAPVISSAALTVGESDLTTVGNLMRFIIAPNFLGLPAISVPVGHDSRGLPIGLQLIGRPWQEATLFRVAAAFEEVCTPLRKRATTFYNILK
notes: full length cDNA in pDEST15 (GST tag), E. coli BL21(DE3), GST column, tag removal not mentioned; cloning primers translate to N-terminus MAQNKMR and C-terminus FYNILK; catalytic triad K202, S278, S302
[1]
  Km: 2.3 µM
  kcat: 1.4 S^−1
